The values that follow come from PMC11316097 (Nature Communications, 2024).

The experiment concerns the target T1, bovine cyclin A2 residues 169-430 (bovine, UniProt P30274 169-430).
T1 construct: cyclin A2, bovine, residues 169-430 of UniProt P30274 (equivalent to human cyclin A residues 171-432, UniProt P20248)
Kind of experiment: cryo-EM structure; purified pY15pT160CDK2, cyclin A and CDC25A(C431S) mixed 1:1.5:2, 1 hr on ice, gel filtration (Superdex S200) in 40 mM HEPES, 200 mM NaCl, 1 mM DTT, pH 7.4; grids with CHAPS; 2.7 Å. As to conditions: both partners purified. Background: In gel filtration, larger molecules generally elute earlier.

T1 sequence (P30274 169-430): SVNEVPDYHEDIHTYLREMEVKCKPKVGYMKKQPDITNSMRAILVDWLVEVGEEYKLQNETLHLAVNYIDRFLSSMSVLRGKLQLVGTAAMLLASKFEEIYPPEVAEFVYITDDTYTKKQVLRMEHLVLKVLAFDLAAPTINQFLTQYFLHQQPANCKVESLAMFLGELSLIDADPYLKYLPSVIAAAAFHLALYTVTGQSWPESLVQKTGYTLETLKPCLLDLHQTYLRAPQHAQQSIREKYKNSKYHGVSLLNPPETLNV

B1: human CDC25A residues 335-524 (catalytic domain and C-terminal tail), Cys431Ser (domain or fragment, UniProt P30304 335-524, looked up)
chain: RDLIGDFSKGYLFHTVAGKHQDLKYISPEIMASVLNGKFANLIKEFVIIDCRYPYEYEGGHIKGAVNLHMEEEVEDFLLKKPIVPTDGKRVIVVFHSEFSSERGPRMCRYVRERDRLGNEYPKLHYPELYVLKGGYKEFFMKCQSYCEPPSYRPMHHEDFKEDLKKFRTKSRTWAGEKSKREMYSRLKKL
notes: Form used for cryo-EM and HDX-MS; also called CDC25A(C431S); CDC25A(Cys431Ser)
Consider B1, for which the binding result is given as “binds”.
